{
  "source": "paper PMC3136132",
  "biological_target": "FMRP (UniProt Q06787)",
  "experiment": "biotin-RNA affinity capture",
  "settings": "50 mM Tris-HCl pH 7.4, 2 mM MgCl2, 150 mM KCl, 1 mM EDTA, 1 mM DTT (Schaeffer buffer without tRNA, supplemented with 125 mM NaCl); SoftLink avidin resin …; scale: fold more RNA needed than eEF-1A mRNA for comparable binding",
  "data": [
    {"substance": "BC1 RNA, annealed", "values": [
      {"measurement": "fold more RNA needed than eEF-1A mRNA", "result": 100}
    ]}
  ]
}
